Assay results as given in PMC12416549 (2024).

B1: K85G (designed binder)
chain: SMEEEVEKAAKEYEKKKKEAIEKHLEKLKAKDKEAAERFLKELEEAAKEYAKDEAKTMSEEEAKRRAKKYKEKVLLSELSEEEQGEIKEAEEKLVRTILKYVEEAAK
B2: A47V (designed binder)
chain: SMEEEVEKAAKEYEKKKKEAIEKHLEKLKAKDKEAAERFLKELEEAVKEYAKDEAKTMSEEEAKRRAKKYKEKVLLSELSEEEQKEIKEAEEKLVRTILKYVEEAAK
B3: K16A (designed binder)
chain: SMEEEVEKAAKEYEKAKKEAIEKHLEKLKAKDKEAAERFLKELEEAAKEYAKDEAKTMSEEEAKRRAKKYKEKVLLSELSEEEQKEIKEAEEKLVRTILKYVEEAAK
B4: E4L (designed binder)
chain: SMELEVEKAAKEYEKKKKEAIEKHLEKLKAKDKEAAERFLKELEEAAKEYAKDEAKTMSEEEAKRRAKKYKEKVLLSELSEEEQKEIKEAEEKLVRTILKYVEEAAK
B5: K73A (designed binder)
chain: SMEEEVEKAAKEYEKKKKEAIEKHLEKLKAKDKEAAERFLKELEEAAKEYAKDEAKTMSEEEAKRRAKKYKEAVLLSELSEEEQKEIKEAEEKLVRTILKYVEEAAK
B6: S59Y (designed binder)
chain: SMEEEVEKAAKEYEKKKKEAIEKHLEKLKAKDKEAAERFLKELEEAAKEYAKDEAKTMYEEEAKRRAKKYKEKVLLSELSEEEQKEIKEAEEKLVRTILKYVEEAAK
B7: K15P (designed binder)
chain: SMEEEVEKAAKEYEPKKKEAIEKHLEKLKAKDKEAAERFLKELEEAAKEYAKDEAKTMSEEEAKRRAKKYKEKVLLSELSEEEQKEIKEAEEKLVRTILKYVEEAAK
B8: K31M (designed binder)
chain: SMEEEVEKAAKEYEKKKKEAIEKHLEKLKAMDKEAAERFLKELEEAAKEYAKDEAKTMSEEEAKRRAKKYKEKVLLSELSEEEQKEIKEAEEKLVRTILKYVEEAAK
B9: L99V (designed binder)
chain: SMEEEVEKAAKEYEKKKKEAIEKHLEKLKAKDKEAAERFLKELEEAAKEYAKDEAKTMSEEEAKRRAKKYKEKVLLSELSEEEQKEIKEAEEKLVRTIVKYVEEAAK
B10: K41F (designed binder)
chain: SMEEEVEKAAKEYEKKKKEAIEKHLEKLKAKDKEAAERFLFELEEAAKEYAKDEAKTMSEEEAKRRAKKYKEKVLLSELSEEEQKEIKEAEEKLVRTILKYVEEAAK
B11: E91S (designed binder)
chain: SMEEEVEKAAKEYEKKKKEAIEKHLEKLKAKDKEAAERFLKELEEAAKEYAKDEAKTMSEEEAKRRAKKYKEKVLLSELSEEEQKEIKEASEKLVRTILKYVEEAAK
B12: K71E (designed binder)
chain: SMEEEVEKAAKEYEKKKKEAIEKHLEKLKAKDKEAAERFLKELEEAAKEYAKDEAKTMSEEEAKRRAKKYEEKVLLSELSEEEQKEIKEAEEKLVRTILKYVEEAAK
B13: Y70H (designed binder)
chain: SMEEEVEKAAKEYEKKKKEAIEKHLEKLKAKDKEAAERFLKELEEAAKEYAKDEAKTMSEEEAKRRAKKHKEKVLLSELSEEEQKEIKEAEEKLVRTILKYVEEAAK
B14: E72P (designed binder)
chain: SMEEEVEKAAKEYEKKKKEAIEKHLEKLKAKDKEAAERFLKELEEAAKEYAKDEAKTMSEEEAKRRAKKYKPKVLLSELSEEEQKEIKEAEEKLVRTILKYVEEAAK
B15: E26S (designed binder)
chain: SMEEEVEKAAKEYEKKKKEAIEKHLSKLKAKDKEAAERFLKELEEAAKEYAKDEAKTMSEEEAKRRAKKYKEKVLLSELSEEEQKEIKEAEEKLVRTILKYVEEAAK
B16: K29M (designed binder)
chain: SMEEEVEKAAKEYEKKKKEAIEKHLEKLMAKDKEAAERFLKELEEAAKEYAKDEAKTMSEEEAKRRAKKYKEKVLLSELSEEEQKEIKEAEEKLVRTILKYVEEAAK
B17: A67H (designed binder)
chain: SMEEEVEKAAKEYEKKKKEAIEKHLEKLKAKDKEAAERFLKELEEAAKEYAKDEAKTMSEEEAKRRHKKYKEKVLLSELSEEEQKEIKEAEEKLVRTILKYVEEAAK
B18: A20G (designed binder)
chain: SMEEEVEKAAKEYEKKKKEGIEKHLEKLKAKDKEAAERFLKELEEAAKEYAKDEAKTMSEEEAKRRAKKYKEKVLLSELSEEEQKEIKEAEEKLVRTILKYVEEAAK
B19: E44I (designed binder)
chain: SMEEEVEKAAKEYEKKKKEAIEKHLEKLKAKDKEAAERFLKELIEAAKEYAKDEAKTMSEEEAKRRAKKYKEKVLLSELSEEEQKEIKEAEEKLVRTILKYVEEAAK
B20: S80P (designed binder)
chain: SMEEEVEKAAKEYEKKKKEAIEKHLEKLKAKDKEAAERFLKELEEAAKEYAKDEAKTMSEEEAKRRAKKYKEKVLLSELPEEEQKEIKEAEEKLVRTILKYVEEAAK
B21: L43M (designed binder)
chain: SMEEEVEKAAKEYEKKKKEAIEKHLEKLKAKDKEAAERFLKEMEEAAKEYAKDEAKTMSEEEAKRRAKKYKEKVLLSELSEEEQKEIKEAEEKLVRTILKYVEEAAK
B22: R38A (designed binder)
chain: SMEEEVEKAAKEYEKKKKEAIEKHLEKLKAKDKEAAEAFLKELEEAAKEYAKDEAKTMSEEEAKRRAKKYKEKVLLSELSEEEQKEIKEAEEKLVRTILKYVEEAAK
B23: A105T (designed binder)
chain: SMEEEVEKAAKEYEKKKKEAIEKHLEKLKAKDKEAAERFLKELEEAAKEYAKDEAKTMSEEEAKRRAKKYKEKVLLSELSEEEQKEIKEAEEKLVRTILKYVEETAK
B24: K23P (designed binder)
chain: SMEEEVEKAAKEYEKKKKEAIEPHLEKLKAKDKEAAERFLKELEEAAKEYAKDEAKTMSEEEAKRRAKKYKEKVLLSELSEEEQKEIKEAEEKLVRTILKYVEEAAK
B25: K16I (designed binder)
chain: SMEEEVEKAAKEYEKIKKEAIEKHLEKLKAKDKEAAERFLKELEEAAKEYAKDEAKTMSEEEAKRRAKKYKEKVLLSELSEEEQKEIKEAEEKLVRTILKYVEEAAK
B26: F39T (designed binder)
chain: SMEEEVEKAAKEYEKKKKEAIEKHLEKLKAKDKEAAERTLKELEEAAKEYAKDEAKTMSEEEAKRRAKKYKEKVLLSELSEEEQKEIKEAEEKLVRTILKYVEEAAK
B27: K56V (designed binder)
chain: SMEEEVEKAAKEYEKKKKEAIEKHLEKLKAKDKEAAERFLKELEEAAKEYAKDEAVTMSEEEAKRRAKKYKEKVLLSELSEEEQKEIKEAEEKLVRTILKYVEEAAK
B28: K56M (designed binder)
chain: SMEEEVEKAAKEYEKKKKEAIEKHLEKLKAKDKEAAERFLKELEEAAKEYAKDEAMTMSEEEAKRRAKKYKEKVLLSELSEEEQKEIKEAEEKLVRTILKYVEEAAK
B29: L99T (designed binder)
chain: SMEEEVEKAAKEYEKKKKEAIEKHLEKLKAKDKEAAERFLKELEEAAKEYAKDEAKTMSEEEAKRRAKKYKEKVLLSELSEEEQKEIKEAEEKLVRTITKYVEEAAK
B30: K48P (designed binder)
chain: SMEEEVEKAAKEYEKKKKEAIEKHLEKLKAKDKEAAERFLKELEEAAPEYAKDEAKTMSEEEAKRRAKKYKEKVLLSELSEEEQKEIKEAEEKLVRTILKYVEEAAK
B31: I98V (designed binder)
chain: SMEEEVEKAAKEYEKKKKEAIEKHLEKLKAKDKEAAERFLKELEEAAKEYAKDEAKTMSEEEAKRRAKKYKEKVLLSELSEEEQKEIKEAEEKLVRTVLKYVEEAAK
B32: K71Q (designed binder)
chain: SMEEEVEKAAKEYEKKKKEAIEKHLEKLKAKDKEAAERFLKELEEAAKEYAKDEAKTMSEEEAKRRAKKYQEKVLLSELSEEEQKEIKEAEEKLVRTILKYVEEAAK
B33: V95E (designed binder)
chain: SMEEEVEKAAKEYEKKKKEAIEKHLEKLKAKDKEAAERFLKELEEAAKEYAKDEAKTMSEEEAKRRAKKYKEKVLLSELSEEEQKEIKEAEEKLERTILKYVEEAAK
B34: L75T (designed binder)
chain: SMEEEVEKAAKEYEKKKKEAIEKHLEKLKAKDKEAAERFLKELEEAAKEYAKDEAKTMSEEEAKRRAKKYKEKVTLSELSEEEQKEIKEAEEKLVRTILKYVEEAAK
B35: A63P (designed binder)
chain: SMEEEVEKAAKEYEKKKKEAIEKHLEKLKAKDKEAAERFLKELEEAAKEYAKDEAKTMSEEEPKRRAKKYKEKVLLSELSEEEQKEIKEAEEKLVRTILKYVEEAAK

Biological target: T1, TNFR1 (Homo sapiens, UniProt P19438)
T1 chain: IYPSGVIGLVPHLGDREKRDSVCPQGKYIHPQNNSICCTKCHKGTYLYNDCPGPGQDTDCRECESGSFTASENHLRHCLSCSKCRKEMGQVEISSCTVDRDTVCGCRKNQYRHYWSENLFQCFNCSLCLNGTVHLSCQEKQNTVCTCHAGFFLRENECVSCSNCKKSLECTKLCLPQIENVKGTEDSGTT
Assay: yeast display SC50

Row | Binder | apparent Kd (screen)
1 | B1 | 0.49 nM
2 | B2 | 0.49 nM
3 | B3 | 2.73 nM
4 | B4 | 0.79 nM
5 | B5 | 12.5 nM
6 | B6 | 7.78 nM
7 | B7 | 6.43 nM
8 | B8 | 0.49 nM
9 | B9 | 2.25 nM
10 | B10 | 0.718 nM
11 | B11 | 10.4 nM
12 | B12 | 2.73 nM
13 | B13 | 5.31 nM
14 | B14 | 1.05 nM
15 | B15 | 0.539 nM
16 | B16 | 0.869 nM
17 | B17 | 10.4 nM
18 | B18 | 2.73 nM

Row | Binder | apparent Kd (screen)
19 | B19 | 0.956 nM
20 | B20 | 0.446 nM
21 | B21 | 1.86 nM
22 | B22 | 2.73 nM
23 | B23 | 0.869 nM
24 | B24 | 11.4 nM
25 | B25 | 0.446 nM
26 | B26 | 2.73 nM
27 | B27 | 2.73 nM
28 | B28 | 0.718 nM
29 | B29 | 5.31 nM
30 | B30 | 12.5 nM
31 | B31 | 11.4 nM
32 | B32 | 0.446 nM
33 | B33 | 11.4 nM
34 | B34 | 0.446 nM
35 | B35 | 6.43 nM
